Measurements as given in publication PMC11974885 (bioRxiv, 2025).

Molecular target: T1, DbfS sensory domain, DbfS^SD-6xHis (Vibrio cholerae, UniProt Q9KRK1 43-171)
T1 sequence: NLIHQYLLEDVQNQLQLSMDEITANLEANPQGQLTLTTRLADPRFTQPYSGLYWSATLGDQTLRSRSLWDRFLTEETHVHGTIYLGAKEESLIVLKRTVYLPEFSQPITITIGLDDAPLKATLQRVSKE
Experiment: MST

B1: DbfQ (processed, 6xHis tag-cleaved) (natural protein)
chain: DNKVRDWEQGSYREGTQIEIDEDQDDVYRAVQKGLIRPFAELYATVDQQLNGRLIKVELDEDDDEWIYELKLVYDNQVFRVEYNAATLELMSIRGRNVIRAIKK
modifications: Red-NHS dye, amine-reactive, covalent (in the MST experiments only)
In the case of B1, the Kd is reported as 30 nM.
